This passage reports Kd results from publication PMC10042821, “Cryo-EM structure of human eIF5A-DHS complex reveals the molecular basis of hypusination-associated neurodegenerative disorders” (Nature Communications, 2023).

What all share (assay): MST; His-tagged DHS variants labelled with RED-tris-NTA 2nd Generation, 8.32 nM; eIF5A titrated, sixteen dilutions 0.00175–57.5 μM; 50 mM Tris, 200 mM NaCl, 5 mM β-ME pH 8; Monolith NT.115, 40% excitation power, 60% MST power; no NAD or SPD
Holding throughout (settings): both partners purified

For assay [1], the target named is T1, deoxyhypusine synthase S240A, His-tagged (human, UniProt P49366 1-369, S240A, RED-tris-NTA 2nd Generation dye on the His tag).
T1 construct: human deoxyhypusine synthase, Uniprot P49366, residues 1-369, site-directed mutant of the pET24d full-length construct; also called DHS S240A; source: E. coli, purified; not shown: 6xHis, N-terminal, kept
T1 sequence (looked up): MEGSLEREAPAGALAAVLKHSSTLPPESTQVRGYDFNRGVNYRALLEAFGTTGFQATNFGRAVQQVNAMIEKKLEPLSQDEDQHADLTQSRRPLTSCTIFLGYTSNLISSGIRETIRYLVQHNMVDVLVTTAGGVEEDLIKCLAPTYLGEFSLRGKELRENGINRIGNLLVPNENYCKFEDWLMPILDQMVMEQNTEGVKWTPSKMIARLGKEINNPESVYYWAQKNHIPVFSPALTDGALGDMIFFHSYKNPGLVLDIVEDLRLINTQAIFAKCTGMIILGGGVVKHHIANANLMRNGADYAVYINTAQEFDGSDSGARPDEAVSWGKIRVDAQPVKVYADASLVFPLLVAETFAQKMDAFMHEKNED

Assay [2] has as its target T2, deoxyhypusine synthase Y250A, His-tagged (human, UniProt P49366 1-369, Y250A, RED-tris-NTA 2nd Generation dye on the His tag).
T2 construct: human deoxyhypusine synthase, Uniprot P49366, residues 1-369, site-directed mutant of the pET24d full-length construct; also called DHS Y250A; source: E. coli, purified; not shown: 6xHis, N-terminal, kept
T2 sequence (looked up): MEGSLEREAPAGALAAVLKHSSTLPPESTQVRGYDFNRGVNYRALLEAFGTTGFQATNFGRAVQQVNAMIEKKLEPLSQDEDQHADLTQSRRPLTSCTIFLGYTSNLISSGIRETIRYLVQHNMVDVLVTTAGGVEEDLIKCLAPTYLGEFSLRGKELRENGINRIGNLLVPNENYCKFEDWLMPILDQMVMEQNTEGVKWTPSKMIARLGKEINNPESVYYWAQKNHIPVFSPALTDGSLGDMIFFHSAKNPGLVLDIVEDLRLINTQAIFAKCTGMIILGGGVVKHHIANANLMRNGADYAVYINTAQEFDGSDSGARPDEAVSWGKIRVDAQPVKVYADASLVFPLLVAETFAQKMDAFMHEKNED

Assay [3] has as its target T3, deoxyhypusine synthase I271A, His-tagged (human, UniProt P49366 1-369, I271A, RED-tris-NTA 2nd Generation dye on the His tag).
T3 construct: human deoxyhypusine synthase, Uniprot P49366, residues 1-369, site-directed mutant of the pET24d full-length construct; also called DHS I271A; source: E. coli, purified; not shown: 6xHis, N-terminal, kept
T3 sequence (looked up): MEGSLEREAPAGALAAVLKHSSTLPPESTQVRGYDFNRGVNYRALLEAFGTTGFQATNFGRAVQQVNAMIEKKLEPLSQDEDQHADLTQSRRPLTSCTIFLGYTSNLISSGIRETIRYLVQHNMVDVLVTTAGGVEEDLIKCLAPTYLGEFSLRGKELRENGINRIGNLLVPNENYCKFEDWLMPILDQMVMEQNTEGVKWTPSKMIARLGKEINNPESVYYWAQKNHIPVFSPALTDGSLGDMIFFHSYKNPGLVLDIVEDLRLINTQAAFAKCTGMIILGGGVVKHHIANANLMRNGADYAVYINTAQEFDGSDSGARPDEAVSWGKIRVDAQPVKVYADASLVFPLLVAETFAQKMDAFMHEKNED

In assay [4] the target is T4, deoxyhypusine synthase F247A, His-tagged (human, UniProt P49366 1-369, F247A, RED-tris-NTA 2nd Generation dye on the His tag).
T4 construct: human deoxyhypusine synthase, Uniprot P49366, residues 1-369, site-directed mutant of the pET24d full-length construct; also called DHS F247A; source: E. coli, purified; not shown: 6xHis, N-terminal, kept
T4 sequence (looked up): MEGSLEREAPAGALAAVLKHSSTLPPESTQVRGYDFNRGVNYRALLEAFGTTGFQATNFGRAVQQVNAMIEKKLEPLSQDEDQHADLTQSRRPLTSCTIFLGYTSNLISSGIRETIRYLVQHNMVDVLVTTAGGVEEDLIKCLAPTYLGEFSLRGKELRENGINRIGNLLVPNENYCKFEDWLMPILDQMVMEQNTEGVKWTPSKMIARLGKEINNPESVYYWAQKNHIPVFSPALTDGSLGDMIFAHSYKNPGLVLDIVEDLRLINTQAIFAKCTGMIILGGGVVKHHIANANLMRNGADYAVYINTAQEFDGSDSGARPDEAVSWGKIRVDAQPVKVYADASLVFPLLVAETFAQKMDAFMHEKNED

A value given as a limit tells only on which side of the number the result lay.

B1: eukaryotic translation factor 5A (eIF5A-1), residues 15-151 (domain or fragment)
chain: not shown
notes: human eIF5A1, residues 15-151, from pET28-MHL (Addgene); The purification protocol removes the tag with TEV; source: E. coli, purified (HisTrap, TEV cleavage, reverse HisTrap, SEC); not shown: His tag, N-terminal, cleaved
In general, Kd refers to a measure of binding affinity in units of concentration. In the case of B1, the Kd in assay [1] was 2660 ± 434 nM; in assay [2] it was above 5000 nM; in assay [3], 56 ± 16 nM; in assay [4], above 5000 nM.
